The text below walks through data of article PMC5770554, “Molecular Insights into Function and Competitive Inhibition of Pseudomonas aeruginosa Multiple Virulence Factor Regulator” (mBio, 2018).

This data set deals with the molecule itself. Nature of the data set: crystal structure; MvfR LBD with the inhibitor M64 bound; space group C 2 2 2_(1), 2.65 Å, two monomers in the asymmetric unit; tetrameric arrangement in the crystal.

B1: MvfR ligand binding domain (LBD), residues 94 to 295 (domain or fragment)
chain: TNLRVLLDTAIPPSFCDTVSSVLLDDFNMVSLIRTSPADSLATIKQDNAEIDIAITIDEELKISRFNQCVLGYTKAFVVAHPQHPLCNASLHSIASLANYRQISLGSRSGQHSNLLRPVSDKVLFVENFDDMLRLVEAGVGWGIAPHYFVEERLRNGTLAVLSELYEPGGIDTKVYCYYNTALESERSFLRFLESARQRLREL
notes: Thr that precedes residue 94 in the construct (His-THB-SUMO-ULP-Thr) and is left after cleavage with SEN protease; the model numbers it Thr93; Q9I4X0 is the entry of strain PAO1; Cloned into pET28a; the model comprises Thr93 to Leu295; also called MvfR LBD; PqsR LBD; source: E. coli BL21(DE3), purified (Ni-NTA, negative Ni-NTA after cleavage of the tag with SEN protease, gel filtration); not …
With B1, the “stoichiometry N” value was 4.
